Test results: PMC8913309 (The Journal of Biological Chemistry, 2022)

Biological target: the molecule itself
Test: SEC

Protein | stoichiometry N
Plasmodium falciparum phosphoglycerate mutase 1 (PfPGM1), recombinant His6-tagged WT protein (enzyme) MTTYTLVLLRHGESTWNKENKFTGWTDVPLSEKGEEEAIAAGKYLKEKNFKFDVVYTSVLKRAICTAWNVLKTADLLHVPVVKTWRLNERHYGSLQGLNKSETAKKYGEEQVKIWRRSYDIPPPKLDKEDNRWPGHNVVYKNVPKDALPFTECLKDTVERVLPFWFDHIAPDILANKKVMVAAHGNSLRGLVKHLDNLSEADVLELNIPTGVPLVYELDENLKPIKHYYLLDSEELKKKMDEVANQGKAK | 4
PfPGM1 K100R, recombinant His6-tagged mutant protein (enzyme, Plasmodium falciparum) MTTYTLVLLRHGESTWNKENKFTGWTDVPLSEKGEEEAIAAGKYLKEKNFKFDVVYTSVLKRAICTAWNVLKTADLLHVPVVKTWRLNERHYGSLQGLNRSETAKKYGEEQVKIWRRSYDIPPPKLDKEDNRWPGHNVVYKNVPKDALPFTECLKDTVERVLPFWFDHIAPDILANKKVMVAAHGNSLRGLVKHLDNLSEADVLELNIPTGVPLVYELDENLKPIKHYYLLDSEELKKKMDEVANQGKAK | 4
PfPGM1 P163A, recombinant His6-tagged mutant protein (enzyme, Plasmodium falciparum) MTTYTLVLLRHGESTWNKENKFTGWTDVPLSEKGEEEAIAAGKYLKEKNFKFDVVYTSVLKRAICTAWNVLKTADLLHVPVVKTWRLNERHYGSLQGLNKSETAKKYGEEQVKIWRRSYDIPPPKLDKEDNRWPGHNVVYKNVPKDALPFTECLKDTVERVLAFWFDHIAPDILANKKVMVAAHGNSLRGLVKHLDNLSEADVLELNIPTGVPLVYELDENLKPIKHYYLLDSEELKKKMDEVANQGKAK | 2
